The results in this text go back to patent US20230416343A1 (SORRENTO THERAPEUTICS, published 2023).

Experiment [1] addresses S protein of live SARS-CoV-2 strain 2020001 (spike protein having the D614G mutation) (SARS-CoV-2, UniProt P0DTC2 14-1273). Kind of experiment: cell-based or functional assay.
Experiment [2] has as its target S protein of live SARS-CoV-2 Alpha variant virus (SARS-CoV-2, UniProt P0DTC2 14-1273). The experiment in a line: cell-based or functional assay.
In experiment [3] the target is SARS-CoV-2 spike protein expressed on HEK293 cells (SARS-CoV-2, UniProt P0DTC2 14-1273).
In experiment [4] the target is T1, SARS-CoV-2 D614G mutant spike protein expressed on HEK293 cells (SARS-CoV-2, UniProt P0DTC2 14-1273).
Experiment [5] deals with SARS-CoV-2 variant spike protein E484K on HEK293 cells (SARS-CoV-2, UniProt P0DTC2 14-1273).
Experiment [6] deals with SARS-CoV-2 variant spike protein S494P on HEK293 cells (SARS-CoV-2, UniProt P0DTC2 14-1273).
The target of experiment [7] is SARS-CoV-2 variant spike protein triple mutant K417N, E484K, and N501Y on HEK293 cells (SARS-CoV-2, UniProt P0DTC2 14-1273).
Experiment [8] addresses T1, SARS-CoV-2 D614G mutant spike protein …. The source holds these as a separate data set.
Experiment [9] deals with SARS-CoV-2 variant spike protein F490S on HEK293 cells (SARS-CoV-2, UniProt P0DTC2 14-1273).

“And” between values parts separate entries of the source, which are not always exact repeats. Equal values may be shown once. Read-outs that look alike come from different tables or passages of the source. Bounds are passed on as bounds.

B1: S1D7270LALA antibody (STI-2020) (antibody, V domains shown)
VH: EVQLVESGGGLIQPGGSLRLSCAASGFTVSSNYMSWVRQAPGKGLEWVSIIYPGGSTEYADSVKGRFTISRDNSRNTLYLQMNSLRAEDTAVYYCARELGYYGMDVWGQGTTVTVSS
VL: DIQMTQSPSSVSASVGDRVTITCRASQGISTWLVWYQQKPGKAPNLLIYGASSLQSGVPSRFSGSGSGTDFTLTISSLQPEDFATYYCQQANAYPYTFGQGTKLEIK
As to B1, in experiment [1], the “IC50, inhibition of cytopathic effect (CPE) on Vero E6 cells, live virus” value was determined as 0.055 µg/mL. Besides, in experiment [2], the “IC50, plaque reduction neutralization test on Vero E6 cells, live virus” value is 9.08 ng/mL and 16.4 ng/mL. For the same molecule, the EC50 is 0.12 µg/mL in [3]; 0.13 µg/mL in experiment [4]; 140 µg/mL in [5]; 131 µg/mL in experiment [6]; greater than 10000 µg/mL in [7]; 130 µg/mL in experiment [8]. The molecule also showed an EC50 in experiment [9] of 48 µg/mL.

In general, EC50 refers to the concentration giving half of the maximal effect. Read a high EC50 as lower potency in that assay.
